The values that follow are results of earlier work, collected in paper PMC10302803.

For orientation: Kd means the free concentration of one partner at which half of the binding sites on the other are occupied at equilibrium, for simple one-to-one binding.

The series addresses VEGF-P3CYC.

VEGF-P3CYC, sequence (main, as listed by the source): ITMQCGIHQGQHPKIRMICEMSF

On to VEGFR2 (from UniProt P35968), for which the Kd is 0.011 µM.
